Source: publication PMC5043356, “A general solution for opening double-stranded DNA for isothermal amplification”

Biological target: RecA (Escherichia coli BJ5183, UniProt P0A7G6 1-353)
Test: EMSA; no nucleotide cofactor; 1 mM Mg2+ (10 mM in Fig. S1B); about 5 nt per RecA; 25 mM Tris pH 7.6, 1 mM MgCl2 (10 mM in supplementary assays), 1 mM DTT, 37 C, 10 min, 12 pmol X1 in 10 ul; 2% native agarose gel
Settings: protein: recombinant; tags: His tag (pET28a, Ni purification); single strand

RecA, sequence (P0A7G6 whole entry): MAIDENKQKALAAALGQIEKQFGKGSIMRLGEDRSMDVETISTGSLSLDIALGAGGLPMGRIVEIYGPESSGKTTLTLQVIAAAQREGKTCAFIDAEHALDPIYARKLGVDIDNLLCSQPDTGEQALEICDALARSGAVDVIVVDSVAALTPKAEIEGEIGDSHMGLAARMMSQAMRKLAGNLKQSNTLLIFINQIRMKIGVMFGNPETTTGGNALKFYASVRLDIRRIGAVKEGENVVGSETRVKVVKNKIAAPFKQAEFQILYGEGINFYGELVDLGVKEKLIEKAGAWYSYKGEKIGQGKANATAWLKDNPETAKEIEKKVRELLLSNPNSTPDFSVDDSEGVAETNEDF

B1: X1 (54 nt) (ssDNA)
DNA: TACGTTAACAAAAAGTCAGATATGGACCTTGCTGCTAAAGGTCTAGGAGCTAAA
Q: Does B1 bind?
A: binds
